According to PMC2132615 (The Journal of Cell Biology, 1997):

Biological target: the molecule itself

B1: CBF3 p110 (p110^NDC10) (natural protein)
chain: MRSSILFLLKLMKIMDVQQQQEAMSSEDRFQELVDSLKPRTAHQYKTYYTKYIQWCQLNQIIPTPEDNSVNSVPYKDLPISAELIHWFLLDTLITDDKPGEKREETEDLDEEEENSFKIATLKKIIGSLNFLSKLCKVHENPNANIDTKYLESVTKLHTHWIDSQKAITTNETNNTNTQVLCPPLLKVSLNLWNPETNHLSEKFFKTCSEKLRFLVDFQLRSYLNLSFEERSKIRFGSLKLGKRDRDAIIYHKVTHSAEKKDTPGHHQLLALLPQDCPFICPQTTLAAYLYLRFYGIPSVSKGDGFPNLNADENGSLLQDIPILRGKSLTTYPREETFSNYYTTVFRYCHLPYKRREYFNKCNLVYPTWDEDTFRTFFNEENHGNWLEQPEAFAFPDKIPFDFKKIMNFKSPYTSYSTNAKKDPFPPPKDLLVQIFPEIDEYKRHDYEGLSQNSRDFLDLMEVLRERFLSNLPWIYKFFPNHDIFQDPIFGNSDFQSYFNDKTIHSKGSPILSFDILPGFNKIYKNKTNFYSLLIERPSQLTFASSHNPDTHPTQKQESEGPLQMSQLDTTQLNELLKQQSFEYVQFQTLSNFQILLSVFNKIFEKLEMKKSSRGYILHQLNLFKITLDERIKKSKIDDADKFIRDNQPIKKEENIVNEDGPNTSRRTKRPKQIRLLSIADSSDESSTEDSNVFKKDGESIEDGAYGENEDENDSEMQEQLKSMINELINSKISTFLRDQMDQFELKINALLDKILEEKVTRIIEQKLGSHTGKFSTLKRPQLYMTEEHNVGFDMEVPKKLRTSGKYAETVKDNDDHQAMSTTASPSPEQDQEAKSYTDEQEFMLDKSIDSIEGIILEWFTPNAKYANQCVHSMNKSGNKSWRANCEALYKERKSIVEFYIYLVNHESLDRYKAVDICEKLRDQNEGSFSRLAKFLRKWRHDHQNSFDGLLVYLSN
Q: For B1, which “stoichiometry N” value is on record?
A: 2
